B1: Coiled-coil-helix-coiled-coil-helix domain-containing protein 2 (Homo sapiens), Q9Y6H1 (parent)
chain: MPRGSRSRTSRMAPPASRAPQMRAAPRPAPVAQPPAAAPPSAVGSSAAAPRQPGLMAQMATTAAGVAVGSAVGHTLGHAITGGFSGGSNAEPARPDITYQEPQGTQPAQQQQPCLYEIKQFLECAQNQGDIKLCEGFNEVLKQCRLANGLA
partner: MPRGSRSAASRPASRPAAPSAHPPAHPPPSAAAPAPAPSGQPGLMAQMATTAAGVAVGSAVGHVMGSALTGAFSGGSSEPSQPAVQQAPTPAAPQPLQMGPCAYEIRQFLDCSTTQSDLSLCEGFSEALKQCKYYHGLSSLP

Variants of: B1
Details: with chc10_human CHCHD10, Q8WYQ3

Variant	effect of a mutation on the interaction
T61I	increasing interaction strength

From IntAct's records for PubMed 30530185
